In paper PMC2172684 (The Journal of Cell Biology, 2003):
Where two headings read alike, the source gives them in different places.

B1: GST-tagged Nup153 (895–1475) (domain or fragment, UniProt P49790 895-1475, looked up)
chain: SNSAASSSFKFGVSSSSSGPSQTLTSTGNFKFGDQGGFKIGVSSDSGSINPMSEGFKFSKPIGDFKFGVSSESKPEEVKKDSKNDNFKFGLSSGLSNPVSLTPFQFGVSNLGQEEKKEELPKSSSAGFSFGTGVINSTPAPANTIVTSENKSSFNLGTIETKSASVAPFTCKTSEAKKEEMPATKGGFSFGNVEPASLPSASVFVLGRTEEKQQEPVTSTSLVFGKKADNEEPKCQPVFSFGNSEQTKDENSSKSTFSFSMTKPSEKESEQPAKATFAFGAQTSTTADQGAAKPVFSFLNNSSSSSSTPATSAGGGIFGSSTSSSNPPVATFVFGQSSNPVSSSAFGNTAESSTSQSLLFSQDSKLATTSSTGTAVTPFVFGPGASSNNTTTSGFGFGATTTSSSAGSSFVFGTGPSAPSASPAFGANQTPTFGQSQGASQPNPPGFGSISSSTALFPTGSQPAPPTFGTVSSSSQPPVFGQQPSQSAFGSGTTPNSSSAFQFGSSTTNFNFTNNSPSGVFTFGANSSTPAASAQPSGSGGFPFNQSPAAFTVGSNGKNVFSSSGTSFSGRKIKTAVRRRK
B2: importin β m-N/m-C (natural protein)
chain: MELITILEKTVSPDRLELEAAQKFLERAAVENLPTFLVELSRVLANPGNSQVARVAAGLQIKNSLTSKDPDIKAQYQQRWLAIDANARREVKNYVLQTLGTETYRPSSASQCVAGIACAEIPVNQWPELIPQLVANVTNPNSTEHMKESTLEAIGYICQDIDPEQLQDKSNEILTAIAQGMRKEEPSNNVKLAATNALLNSLEFTKANFDKESERHAIMQVVCEATQCPDTRVRVAALQNLVKIMSLYYQYMETAMGPALFARTIEAMKSDIDEVALQGIEFWSNVCDEEMDLAIEASEAAEQGRPPEHTSKFYAKGALQYLVPILTQTLTKQDENDDDDDWNPCKAAGVCLMLLATCCEDDIVPHVLPFIKEHIKNPDWRYRDAAVMAFGCILEGPEPSQLKPLVIQAMPTLIELMKDPSVVVRDTAAWTVGRICELLPEAAINDVYLAPLLQCLIEGLSAEPRVASNVCWAFSSLAEAAYEAADVADDQEEPATYCLSSSFELIVQKLLETTDRPDGHQNNLRSSAYESLMEIVKNSAKDCYPAVQKTTLVIMERLQQVLQMESHIQSTSDRIQFNDLQSLLCATLQNVLRKVQHQDALQISDVVMASLDRMFQSTAGSGGVQEDALMAVSTLVEVLGGEFLKYMEAFKPFLGIGLKNYAEYQVCLAAVGLVGDLCRALQSNIIPACDEVMQLLLENLGNENVHRSVKPQILSVFGDIALAIGGEFKKYLEVVLNTLQQASQAQVDKSDYDMVDYLNELRESCLEAYTGIVQGLKGDQENVHPDVMLVQPRVEFILSFIDHIAGDEDHTDGVVACAAGLIGDLCTAFGKDVLKLVEARPMIHELLTEGRRSKTNKAKTLATWATKELRKLKNQA
B3: importin β (304–876) F688A (domain or fragment, human, UniProt Q14974 304-876, looked up)
chain: GRPPEHTSKFYAKGALQYLVPILTQTLTKQDENDDDDDWNPCKAAGVCLMLLATCCEDDIVPHVLPFIKEHIKNPDWRYRDAAVMAFGCILEGPEPSQLKPLVIQAMPTLIELMKDPSVVVRDTAAWTVGRICELLPEAAINDVYLAPLLQCLIEGLSAEPRVASNVCWAFSSLAEAAYEAADVADDQEEPATYCLSSSFELIVQKLLETTDRPDGHQNNLRSSAYESLMEIVKNSAKDCYPAVQKTTLVIMERLQQVLQMESHIQSTSDRIQFNDLQSLLCATLQNVLRKVQHQDALQISDVVMASLLRMFQSTAGSGGVQEDALMAVSTLVEVLGGEFLKYMEAFKPFLGIGLKNYAEYQVCLAAVGLVGDLCRALQSNIIPACDEVMQLLLENLGNENVHRSVKPQILSVFGDIALAIGGEFKKYLEVVLNTLQQASQAQVDKSDYDMVDYLNELRESCLEAYTGIVQGLKGDQENVHPDVMLVQPRVEFILSFIDHIAGDEDHTDGVVACAAGLIGDLCTAFGKDVLKLVEARPMIHELLTEGRRSKTNKAKTLATWATKELRKLKNQA

Legend:
Experiment in all cases: ELISA
importin β E214A = importin β E214A (human, UniProt Q14974 1-876, E214A)
importin β I263R = importin β I263R (human, UniProt Q14974 1-876, I263R)
importin β Y255A = importin β Y255A (human, UniProt Q14974 1-876, Y255A)
importin β I178D = importin β I178D (human, UniProt Q14974 1-876, I178D)
importin β I178A = importin β I178A (human, UniProt Q14974 1-876, I178A)
importin β I178A/E214A = importin β I178A/E214A (human, UniProt Q14974 1-876, I178A | E214A)
importin β I178D/Y255A = importin β I178D/Y255A (human, UniProt Q14974 1-876, I178D | Y255A)
importin β F217A/Y255A = importin β F217A/Y255A (human, UniProt Q14974 1-876, F217A | Y255A)
[1] = biological target: T1, importin β I178A/F217A/Y255A/I263R (m-N) (human, UniProt Q14974 1-876, I178A | F217A | Y255A | I263R)
wild-type importin β [2] = biological target: T2, wild-type importin β (human, UniProt Q14974 1-876)
importin β F217A = importin β F217A (human, UniProt Q14974 1-876, F217A)
[3] = biological target: importin β L612D/F688A (m-C) (human, UniProt Q14974 1-876, L612D | F688A)
[4] = biological target: T1, importin β I178A/F217A/Y255A/I263R (m-N); remark: listed apart in the source
wild-type importin β [5] = biological target: T2, wild-type importin β; remark: listed apart in the source
GST–RanGTP = GST–RanGTP (UniProt P62826 1-216)
[6] = biological target: B1

Binder: B1
Kd (importin β E214A): 1.8 ± 0.1 nM
Kd (importin β I263R): 2.5 ± 0.3 nM
Kd (importin β Y255A): 3.5 ± 0.3 nM
Kd (importin β I178D): 40.1 ± 9.1 nM
Kd (importin β I178A): 1.1 ± 0.1 nM
Kd (importin β I178A/E214A): 27 ± 4.1 nM
Kd (importin β I178D/Y255A): 68.3 ± 9 nM
Kd (importin β F217A/Y255A): 32.4 ± 5.3 nM
Kd [1]: 99 ± 15.2 nM
Kd (wild-type importin β [2]): 1.1 ± 0.1 nM
Kd (importin β F217A): 2.1 ± 0.2 nM
Kd [3]: 1.2 ± 0.1 nM
Kd [4]: 91.3 ± 11.8 nM
Kd (wild-type importin β [5]): 1 ± 0.1 nM

Binder: B2
Kd (GST–RanGTP): 4.4 nM

Binder: B3
fold decrease in affinity against importin β (304–876) [6]: ~2 fold
